Source: US12584107B2 (dated 2026)
Substitutions are numbered along the chain they refer to. Values belong to the binder of their own block, whether it stands above or below them.

Key:
[1] = target: T1, NY-ESO-1 peptide on HLA-A*02:01 (human); assay: multimer staining
T1 peptide: SLLMWITQC

[2] = target: T1, NY-ESO-1 peptide on HLA-A*02:01; assay: activation reporter or marker

binding result [1]: recognises
B1: NY7JSY (TCR, V domains shown)
Valpha: QKEVEQNSGPLSVPEGAIASLNCTYSDRGSQSFFWYRQYSGKSPELIMFIYSNGDKEDGRFTAQLNKASQYVSLLIRDSQPSDSATYLCAVMRAGGFKTIFGAGTRLFVKA
Vbeta: DSGVTQTPKHLITATGQRVTLRCSPRSGDLSVYWYQQSLDQGLQFLIQYYNGEERAKGNILERFSAQQFPDLHSELNLSSLELGDSALYFCASSVVDGEQYFGPGTRLTVT

binding result [2]: recognises
B2: NY7 variant TCR ID 5 (Table A) (TCR, V domains shown)
Valpha: B1 Valpha with G29W
Vbeta: B1 Vbeta
